Consider 23 molecules from patent US20260242419A1, “A CYCLIC PEPTIDE FOR TRAPPING INTERLEUKIN-1 BETA” (Merck Sharp & Dohme LLC, priority 2023, published 2026).

Starred links: 1 amine or outer side, 2 acyl side, 3 side chain; linkers in the order of their positions; H or OH if unused. Non-standard residues stand in square brackets, D forms with d. Primed or numbered codes have the meaning given here. AEFBz4Piperaz = (S)-2-amino-3-(4-(2-(4-(piperazin-1-yl)benzamido)ethoxy)phenyl)propanoic acid, O=C(NCCOc1ccc(C[C@H](N[*:1])C(=O)[*:2])cc1)c1ccc(N2CCN([*:3])CC2)cc1; AEF2PyrimCO = (S)-2-amino-3-(4-(2-(pyrimidine-2-carboxamido)ethoxy)phenyl)propanoic acid, O=C(NCCOc1ccc(C[C@H](N[*:1])C(=O)[*:2])cc1)c1ncccn1; AEF4PyrimCO = (S)-2-amino-3-(4-(2-(pyrimidine-4-carboxamido)ethoxy)phenyl)propanoic acid, O=C(NCCOc1ccc(C[C@H](N[*:1])C(=O)[*:2])cc1)c1ccncn1; AEF4PyrCO = (S)-2-amino-3-(4-(2-(isonicotinamido)ethoxy)phenyl)propanoic acid, O=C(NCCOc1ccc(C[C@H](N[*:1])C(=O)[*:2])cc1)c1ccncc1; AEFBz = (S)-2-amino-3-(4-(2-benzamidoethoxy)phenyl)propanoic acid, O=C(NCCOc1ccc(C[C@H](N[*:1])C(=O)[*:2])cc1)c1ccccc1; TyrEtNAc = (2S)-3-[4-(2-acetamidoethoxy)phenyl]-2-amino-propanoic acid, CC(=O)NCCOc1ccc(C[C@H](N[*:1])C(=O)[*:2])cc1; dProc3CH24Pal = (2R,3S)-3-(4-pyridylmethyl)pyrrolidine-2-carboxylic acid, O=C([C@H]1[C@@H](Cc2ccncc2)CCN1[*:1])[*:2]; DabMe3 = [(3S)-3-amino-4-oxo-butyl]-trimethyl-ammonium, C[N+](C)(C)CC[C@H](N[*:1])C(=O)[*:2]; Ala3Isoxa5Me = 3-(5-methylisoxazol-3-yl)alanine, Cc1cc(C[C@H](N[*:1])C(=O)[*:2])no1; 4PyrimAla″ = 3-(pyrimidin-4-yl)alanine, O=C([C@H](Cc1ccncn1)N[*:1])[*:2]; Ala2Oxa = 3-(oxazol-2-yl)alanine, O=C([C@H](Cc1ncco1)N[*:1])[*:2]; dPro(4R-(4-pyridylmethyl)) = O=C(O)[C@H]1C[C@@H](Cc2ccncc2)CN1; Ala(piperidin-4-yl) = O=C([C@H](CC1CCN([*:3])CC1)N[*:1])[*:2]; Trp(βS-Me,4-F) = C[C@@H](c1c[nH]c2cccc(F)c12)[C@H](N)C(=O)O; Bip(4'-COOH) = N[C@@H](Cc1ccc(-c2ccc(C(=O)O)cc2)cc1)C(=O)O; dPro(4R-Bzl(4-F)) = O=C(O)[C@H]1C[C@@H](Cc2ccc(F)cc2)CN1; dPro(3S-(4-F-Bn)) = O=C(O)[C@@H]1NCC[C@@H]1Cc1ccc(F)cc1; Ala(morpholin-4-yl) = N[C@@H](CN1CCOCC1)C(=O)O; Ala(pyrimidin-5-yl) = N[C@@H](Cc1cncnc1)C(=O)O; Phe(4-COOH) = N[C@@H](Cc1ccc(C(=O)O)cc1)C(=O)O; Phe(4-tBu) = CC(C)(C)c1ccc(C[C@H](N)C(=O)O)cc1; Ala(4-Pyridazinyl) = N[C@@H](Cc1ccnnc1)C(=O)O; Ala(2-pyrazinyl) = N[C@@H](Cc1cnccn1)C(=O)O; Phe(3-Cl) = N[C@@H](Cc1cccc(Cl)c1)C(=O)O; Pro(cis-4-F) = O=C(O)[C@@H]1C[C@H](F)CN1; Ala(4-THP) = N[C@@H](CC1CCOCC1)C(=O)O; cisHyp = O=C(O)[C@@H]1C[C@H](O)CN1; d(αMeD) = C[C@@](N)(CC(=O)O)C(=O)O; h4Pal = N[C@@H](CCc1ccncc1)C(=O)O; 3Pal = N[C@@H](Cc1cccnc1)C(=O)O; 4Pal = N[C@@H](Cc1ccncc1)C(=O)O; Dab = NCC[C@H](N)C(=O)O; Aib = CC(C)(N)C(=O)O

The labels stand for the following.
B1: SEQ ID NO 313 (peptide)
peptide: cyclo([Bip(4'-COOH)][4Pal][Phe(4-COOH)]G[Pro(cis-4-F)][Trp(βS-Me,4-F)][Aib]SW[d(αMeD)][Ala(4-THP)]Q[Dab]G[dPro(4R-Bzl(4-F))])
modifications: ring closure inferred; not fully specified (N-terminus); printed as cyclic, Bip4CO2H-4Pal-Phe4COOH-G-Proc4F-SbMeW4F-Aib-S-W-daMeD-AlaTHP4-Q-Dab-G-dProc4Bn4F
B2: SEQ ID NO 308 (peptide)
peptide: cyclo([AEFBz][4Pal][Phe(4-COOH)]G[Pro(cis-4-F)][Trp(βS-Me,4-F)][Aib]SW[Aib][Ala(pyrimidin-5-yl)]Q[Dab]G[dPro(4R-(4-pyridylmethyl))])
modifications: ring closure inferred; not fully specified (N-terminus); printed as cyclic, AEFBz-4Pal-Phe4COOH-G-Proc4F-SbMeW4F-Aib-S-W-Aib-PyrimAla-Q-Dab-G-dProc4CH24Pal
B3: SEQ ID NO 314 (peptide)
peptide: cyclo([Bip(4'-COOH)][4Pal][Phe(4-COOH)]G[Pro(cis-4-F)][Trp(βS-Me,4-F)][Aib]SW[Aib][DabMe3]Q[Dab]G[dPro(4R-Bzl(4-F))])
modifications: ring closure inferred; not fully specified (N-terminus); printed as cyclic, Bip4CO2H-4Pal-Phe4COOH-G-Proc4F-sbMeW4F-Aib-S-W-Aib-DabMe3-Q-Dab-G-dProc4Bn4F
B4: SEQ ID NO 306 (peptide)
peptide: cyclo([AEFBz4Piperaz][4Pal][Phe(4-COOH)]G[Pro(cis-4-F)][Trp(βS-Me,4-F)][Aib]SW[Aib][Ala(pyrimidin-5-yl)]Q[Dab]G[dPro(4R-(4-pyridylmethyl))])
modifications: ring closure inferred; not fully specified (N-terminus); printed as cyclic, AEFBz4Piperaz-4Pal-Phe4COOH-G-Proc4F-SbMeW4F-Aib-S-W-Aib-PyrimAla-Q-Dab-G-dProc4CH24Pal
B5: SEQ ID NO 304 (peptide)
peptide: cyclo([AEF2PyrimCO][4Pal][Phe(4-COOH)]G[Pro(cis-4-F)][Trp(βS-Me,4-F)][Aib]SW[Aib][Ala(pyrimidin-5-yl)]Q[Dab]G[dPro(4R-(4-pyridylmethyl))])
modifications: ring closure inferred; not fully specified (N-terminus); printed as cyclic, AEF2PyrimCO-4Pal-Phe4COOH-G-Proc4F-SbMeW4F-Aib-S-W-Aib-PyrimAla-Q-Dab-G-dProc4CH24Pal
B6: SEQ ID NO 307 (peptide)
peptide: cyclo([AEF4PyrCO][4Pal][Phe(4-COOH)]G[Pro(cis-4-F)][Trp(βS-Me,4-F)][Aib]SW[Aib][Ala(pyrimidin-5-yl)]Q[Dab]G[dPro(4R-(4-pyridylmethyl))])
modifications: ring closure inferred; not fully specified (N-terminus); printed as cyclic, AEF4PyrCO-4Pal-Phe4COOH-G-Proc4F-SbMeW4F-Aib-S-W-Aib-PyrimAla-Q-Dab-G-dProc4CH24Pal
B7: SEQ ID NO 312 (peptide)
peptide: cyclo([Bip(4'-COOH)][4Pal][Phe(4-COOH)]G[Pro(cis-4-F)][Trp(βS-Me,4-F)][Aib]EW[Aib][4PyrimAla″]Q[Dab]G[dPro(3S-(4-F-Bn))])
modifications: ring closure inferred; not fully specified (N-terminus); printed as cyclic, Bip4CO2H-4Pal-Phe4COOH-G-Proc4F-SbMeW4F-Aib-E-W-Aib-4PyrimAla-Q-Dab-G-dProc3Bn4F
B8: SEQ ID NO 305 (peptide)
peptide: cyclo([AEF4PyrimCO][4Pal][Phe(4-COOH)]G[Pro(cis-4-F)][Trp(βS-Me,4-F)][Aib]SW[Aib][Ala(pyrimidin-5-yl)]Q[Dab]G[dPro(4R-(4-pyridylmethyl))])
modifications: ring closure inferred; not fully specified (N-terminus); printed as cyclic, AEF4PyrimCO-4Pal-Phe4COOH-G-Proc4F-SbMeW4F-Aib-S-W-Aib-PyrimAla-Q-Dab-G-dProc4CH24Pal
B9: SEQ ID NO 311 (peptide)
peptide: cyclo([Phe(4-tBu)][4Pal][Phe(4-COOH)]G[Pro(cis-4-F)][Trp(βS-Me,4-F)][Aib]EW[Aib][Ala(pyrimidin-5-yl)]Q[Dab]G[dPro(4R-(4-pyridylmethyl))])
modifications: ring closure inferred; not fully specified (N-terminus); printed as cyclic, Phe4tButyl-4Pal-Phe4COOH-G-Proc4F-SbMeW4F-Aib-E-W-Aib-PyrimAla-Q-Dab-G-dProc4CH24Pal

The target of the experiment is Recombinant human IL-1β (BioLegend 579404) (human, UniProt P01584 117-269). Put plainly: cell-based or functional assay.
As to B1, the “MRC5 IC50” value turned out to be 0.015 nM.

Turning to cyclo([Bip(4'-COOH)][4Pal][Phe(4-COOH)]G[Pro(cis-4-F)][Trp(βS-Me,4-F)][Aib]SW[d(αMeD)][Ala(2-pyrazinyl)]Q[Dab]G[dPro(4R-Bzl(4-F))]) (ring closure inferred) [SEQ ID NO 321], the “MRC5 IC50” value stood at 0.015 nM.

For cyclo([Bip(4'-COOH)][4Pal][Phe(4-COOH)]G[cisHyp][Trp(βS-Me,4-F)][Aib]SW[Aib][Ala(pyrimidin-5-yl)]Q[Dab]G[dProc3CH24Pal]) (ring closure inferred) [SEQ ID NO 325], the “MRC5 IC50” value stood at 0.027 nM. To cyclo([TyrEtNAc][4Pal][Phe(4-COOH)]G[Pro(cis-4-F)][Trp(βS-Me,4-F)][Aib]EW[Aib][Ala2Oxa]Q[Dab]G[dPro(4R-(4-pyridylmethyl))]) (ring closure inferred; not fully specified (N-terminus)) [SEQ ID NO 316] belongs 0.02 nM. To B2 belongs 0.013 nM; to cyclo([Bip(4'-COOH)][4Pal][Phe(4-COOH)]G[Pro(cis-4-F)][Trp(βS-Me,4-F)][Aib]SW[d(αMeD)][3Pal]Q[Dab]G[dPro(4R-Bzl(4-F))]) (ring closure inferred) [SEQ ID NO 323], 0.012 nM; to cyclo([TyrEtNAc][4Pal][Phe(4-COOH)]G[Pro(cis-4-F)][Trp(βS-Me,4-F)][Aib]EW[Aib][Ala3Isoxa5Me]Q[Dab]G[dPro(4R-(4-pyridylmethyl))]) (ring closure inferred; not fully specified (N-terminus)) [SEQ ID NO 315], 0.018 nM. As for cyclo([Bip(4'-COOH)][4Pal][Phe(4-COOH)]G[Pro(cis-4-F)][Trp(βS-Me,4-F)][Aib]SW[d(αMeD)][Ala(morpholin-4-yl)]Q[Dab]G[dPro(4R-Bzl(4-F))]) (ring closure inferred) [SEQ ID NO 319], the “MRC5 IC50” value turned out to be 0.017 nM.

As for B3, the “MRC5 IC50” value is 0.02 nM. To cyclo([Bip(4'-COOH)][4Pal][Phe(4-COOH)]G[Pro(cis-4-F)][Trp(βS-Me,4-F)][Aib]SW[d(αMeD)][Ala(piperidin-4-yl)]Q[Dab]G[dPro(4R-Bzl(4-F))]) (ring closure inferred) [SEQ ID NO 320] belongs 0.015 nM; to B4, 0.02 nM; to cyclo([Bip(4'-COOH)][4Pal][Phe(4-COOH)]G[Pro(cis-4-F)][Trp(βS-Me,4-F)][Aib]SW[d(αMeD)][Ala(4-Pyridazinyl)]Q[Dab]G[dPro(4R-Bzl(4-F))]) (ring closure inferred) [SEQ ID NO 322], 0.013 nM. To cyclo([TyrEtNAc][4Pal][Phe(4-COOH)]G[Pro(cis-4-F)][Trp(βS-Me,4-F)][Aib]EW[Aib][h4Pal]Q[Dab]G[dPro(4R-(4-pyridylmethyl))]) (ring closure inferred) [SEQ ID NO 318] belongs 0.025 nM; to B5, 0.014 nM. As to cyclo([TyrEtNAc][4Pal][Phe(4-COOH)]G[Pro(cis-4-F)][Trp(βS-Me,4-F)][Aib]EW[Aib]YQ[Dab]G[dPro(4R-(4-pyridylmethyl))]) (ring closure inferred; not fully specified (N-terminus)) [SEQ ID NO 310], the “MRC5 IC50” value amounted to 0.017 nM. To B6 belongs 0.018 nM. As for B7, the “MRC5 IC50” value stood at 0.017 nM. Turning to B8, the “MRC5 IC50” value came out at 0.016 nM. On to cyclo([Bip(4'-COOH)][4Pal][Phe(4-COOH)]G[Pro(cis-4-F)][Trp(βS-Me,4-F)][Aib]SW[Aib][Ala(pyrimidin-5-yl)]Q[Dab]G[dProc3CH24Pal]) (ring closure inferred) [SEQ ID NO 326], for which the “MRC5 IC50” value was 0.011 nM. Regarding B9, the “MRC5 IC50” value amounted to 0.017 nM.

Turning to cyclo([TyrEtNAc][4Pal][Phe(4-COOH)]G[Pro(cis-4-F)][Trp(βS-Me,4-F)][Aib]EW[Aib][Phe(3-Cl)]Q[Dab]G[dPro(4R-(4-pyridylmethyl))]) (ring closure inferred; not fully specified (N-terminus)) [SEQ ID NO 309], the “MRC5 IC50” value turned out to be 0.018 nM. The result for cyclo([TyrEtNAc][4Pal][Phe(4-COOH)]G[Pro(cis-4-F)][Trp(βS-Me,4-F)][Aib]EW[Aib]HQ[Dab]G[dPro(4R-(4-pyridylmethyl))]) (ring closure inferred) [SEQ ID NO 317] reads 0.015 nM.

On to cyclo([Bip(4'-COOH)][4Pal][Phe(4-COOH)]G[Pro(cis-4-F)][Trp(βS-Me,4-F)][Aib]SW[d(αMeD)][4Pal]Q[Dab]G[dPro(4R-Bzl(4-F))]) (ring closure inferred) [SEQ ID NO 324], for which the “MRC5 IC50” value was 0.013 nM.
